System: MS2 coat protein
Assay: apparent KD of MS2 coat protein; higher = weaker reporter binding
Details: Eterna round: R107
In short: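 Apparent KD stands for the median, per design, of fits to normalised cluster binding curves. The curves came from titrating on-chip-transcribed RNA switches on Illumina sequencing clusters with SNAP-549-labelled MS2 coat protein, twofold from 0.7 or 1.5 nM to 3 µM. Buffer was 100 mM Tris-HCl pH 7.5, 80 mM KCl, 4 mM MgCl2, without or with constant ligand.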

[1] = input ligand: theophylline 20 uM
[2] = input ligand: theophylline 2 mM
[3] = input ligand: tryptophan 2.4 mM

Row | Sequence | apparent KD of MS2 coat protein (input ligand: arginine 13.2 mM) [nM] | apparent KD of MS2 coat protein (input ligand: none) [nM] | apparent KD of MS2 coat protein [1] [nM] | apparent KD of MS2 coat protein [2] [nM] | apparent KD of MS2 coat protein [3] [nM]
1 | GGAUAGGACAGAAGGAGCGACAUGAGGAUCACCCAUGUGGAUCAACGACGAAAGUCGCCAUGUCAGGUAGGUCGCUGUCCUAUCG [ArgXB 8 #MS2Gate #StaticStem #MS2LeftOffAptamer] | 139 | 511 | 549 | 969 | 918
2 | GGAUAUAGGGAACCGUAUCCGAAACCUGAAGGAGCGGCCGAAAGGCCAGGUAGGUCGCGGGAACAUGAGGAUCACCCAUGUAUUC [dancer] | 31.1 | 57.3 | 71.8 | 59.2 | 55.4
3 | GGAUGCGGCACGGCCGCCACUGCGGUGGUGUGACAUGAGGAUCACCCAUGUUGUCAUGCGGCCCUUAGGACCGGGUGGCGUUUCC [#1 Exclusion - Tryptophan B Attempt #20 (HarryS)] | 38 | 56.7 | 73.6 | 66.7 | 62.9
4 | GGAUUAGAGGCGGCCGCCACUGGAACAUGAGGAUCACCCAUGUAGUGCAUGUAAUUAACCUCGAUCAGGACCGGGCCGAUAGUCA [Exclusion - Tryptophan B / A] | 51.9 | – | 85.2 | 67.2 | –
5 | GGCACAUAGUCGGCCGCCACUAGGCUGUAGUGGGAGGACAUGAGGAUCACCCAUGUAUUUGGUACUAGGACCGGGACUAUGUGCC [Lion] | 62.3 | 191 | 259 | 274 | 258
6 | GGCACAUAGUCGGCCGCCACUAGUAUAAGAUGGAAUAACAUGAGGAUCACCCAUGUAAAAGGGACUAGGACCGGGACUAUGUGCC [Rat] | 12.2 | 13 | 18.2 | 15.4 | 12.5
7 | GGCACAUAGUCGGCCGCCACUAGUGGGAAAUGGGAGAACAUGAGGAUCACCCAUGUAUAAUAGCCUAGGACCGGGACUAUGUGCC [Elk] | 64.2 | 188 | 227 | 113 | 55.3
8 | GGCACAUAGUCGGCCGCCACUAGUGGGAAAUGGGAGAACAUGAGGAUCACCCAUGUUGCGUAGCCUAGGACCGGGACUAUGUGCC [Hippopotamus] | 29.1 | 30.1 | 37.6 | 33.2 | 35
9 | GGCACCAGGAGAAGGAGCGUGAAGACAUGAGGAUCACCCAUGUAGAGGCCCGGACAGGGUUCGCAGGUAGGUCGCUCCUGGUGCC [#1 Same State - Arginine B Attempt #10 (HarryS)] | 20.4 | 8.29 | 245 | 122 | 47.2
10 | GGCCAUGGAAACAUGGCGGCGGCAUAAGCGCGAGGACCGGUACGGCCGCCACUCGGGCGACAUGAGGAUCACCCAUGUUCCUCAU [ETA NP+V+V2 #23 Same Structure] | 105 | – | 413 | 529 | –
11 | GGCCCUGCGAGCGCUCGCAGGGCCGCGGAUACCAGCGAGGUCCAUCGCCCUUGGCAGCCGAACAUGAGGAUCACCCAUGUCGGUU [#1 Same State - Theophylline A Attempt #12 (HarryS)] | 5.98 | 11.2 | 12.3 | 14.4 | 9.96
12 | GGCCGUGCGAGCGCUCGCGUGGCCGCGGAUACCAGCGAGGUCCAUCGCCCUUGGCAGCCGAACAUGAGGAUCACCCAUGUCGGUA [#1 Same State - Theophylline A Attempt #14 (HarryS)] | 8.93 | 11 | 15.2 | 17.3 | 9.77
13 | GGCCUGUGGAGCGAUACCAGCUUGAGUGUACUGGCCAGGUACAUGAGGAUCACCCAUGUAAGCCCUUGGCAGCGCUCCAGAGGCC [#1 Exclusion - Theophylline B Attempt #18 (HarryS)] | 9.41 | 12.1 | 16.4 | 56.7 | 13.2
14 | GGCCUGUGGUGCGAUACCAGCUUGAGUGUACUGGCCAGGUACAUGAGGAUCACCCAUGUAAGCCCUUGGCAGCGCGUCAGAGGCC [#1 Exclusion - Theophylline B Attempt #19 (HarryS)] | 13.5 | 8.82 | 16.9 | 30.3 | 12.1
15 | GGCCUUGCGGGCGCCCGCAAGGCCGCGGAUACCAGCGAGGUCCAUCGCCCUUGGCAGCCGAACAUGAGGAUCACCCAUGUCGGUU [Same State - Theophylline A Attempt #6 (HarryS)] | 9.84 | – | 13.7 | – | 11.3
16 | GGCGCGCGCCAACAUGAGGAUCACCCAUGUCGAGGACCGGUACGGCCGCCACUCGAACGAGUGAAGCGCGCGCGCGGAGCGCCGC [Taa] | 24 | 37.1 | 47.8 | 47 | 60.1
17 | GGCGCGGUGAUGGAAGCCGAACGCUAGGUACGAGGACCGGUACGGCCGCCACUCGUAGUCCUGGGACAUGAGGAUCACCCAUGUA [Same State Trp A GF20] | 39.3 | 119 | 109 | 96 | 51.2
18 | GGCGGACUUAUAGAUACCAGCACAUGAGGAUCACCCAUGUAUGGUCGCACCUCAGUCCUGUGCCCUUGGCAGCUAUAAUAGAUUU [Esxeanbi] | 20.8 | – | 49.8 | – | 16.4
19 | GGCUGUCAUAGGAGGUCAAAUAUACUCGAAGGAGCGUCAUAGUAGGCAGGUAGGUCGCGAGACAUGAGGAUCACCCAUGUAGAGA [xkxmullin] | 37.7 | 69.1 | 122 | 52.9 | 30.6

Row | Sequence | apparent KD of MS2 coat protein (input ligand: arginine 13.2 mM) [nM] | apparent KD of MS2 coat protein (input ligand: none) [nM] | apparent KD of MS2 coat protein [1] [nM] | apparent KD of MS2 coat protein [2] [nM] | apparent KD of MS2 coat protein [3] [nM]
20 | GGCUGUUGCGAUUUGAAGCGGCAGCGUGAUACCAGAUGUAAGAGCGUCCCUUGGCAGCACGUUUACAUGAGGAUCACCCAUGUCA [Xerema] | 56.6 | – | 123 | – | 192
21 | GGCUGUUGCUCUUUGAAGCGGCAGCGUGAUACCAGAUGUAAGAGCGUCCCUUGGCAGCACGUUUACAUGAGGAUCACCCAUGUCA [Raisquin] | 70.6 | – | 163 | – | 151
22 | GGCUUCAACUCGGCCGCCACUGGUGAUCCUCAUGUACAUGAGGAUCACCCAUGUACAUGAGACUACAGGACCGGGAGAUCAGCAA [Tryptophan B] | 10.5 | – | 28.8 | 22.5 | –
23 | GGGAAUGAACGUGAUACCAGAGAUCCGGUCUCCGUCACUCUACAUGAGGAUCACCCAUGUCUCCCUUGGCAGCACCGUCAUCGGG [Exclusion Theophylline B GF 29] | 32.4 | – | 43.3 | – | 29
24 | GGGACAUCGGGAAGGAGCGCAUCCAAACCACACAUGAGGAUCACCCAUGUAUAAAUAUGCAUGCAGGUAGGUCGCCCGGUGCCUC [Axeenza] | 44.2 | 114 | 131 | 123 | 101
25 | GGGAGGGAGGCGGCCGCCACUGAUUUUCAUAUAUAUAUAACAUGAGGAUCACCCAUGUGGAUAUGCAGGACCGGGCCUUUUUUUU [aaaJ] | 123 | 22.2 | 18.8 | 13.2 | 20.2
26 | GGGCAAGAGGGAAGGAGCGUCGGCUGAGUAACAUGAGGAUCACCCAUGUAGCACAUGGUGUGGCAGGUAGGUCGCCCUCUGCCCU [SS-ArgB8] | 56.1 | 103 | 201 | 178 | 118
27 | GGGCCCGGGCCCGAUACCAGCAGAGAAAACAUAUAUCCUAACAUGAGGAUCACCCAUGUAUGCCCUUGGCAGCGGGCCCGGGCCC [#15 Exclusion-TheophyllineB] | 32.2 | 34.5 | 33.9 | 33.2 | 28.2
28 | GGGCCCGGGCGCGAGCCCGGGCCCAUUGAUACCAGUGAAUAUAUACGCCCUUGGCAGCGAAUCCUAACAUGAGGAUCACCCAUGU [5.B] | 34.8 | 50.2 | 62.3 | 49.4 | 38.2
29 | GGGCCCGGGCGCGAGCCCGGGCCCAUUGAUACCAGUGAAUGUGUACGCCCUUGGCAGCGAAUCCUAACAUGAGGAUCACCCAUGU [5.D] | 31.4 | – | 76.7 | – | 35.2
30 | GGGCCUGUAGGCAGGCCCACAGCGGGUGAUACCAGCAAUAAAACUUGCCCUUGGCAGCACACAGCUACAUGAGGAUCACCCAUGU [Ismaorxe] | 44.9 | – | 99.3 | – | 69.7
31 | GGGCGCUAUCCCGCGAGGGAUAGCGUUCAACGAGGACCGGUACGGCCGCCACUCGAACGAGUGGGUACAUGAGGAUCACCCAUGU [Haa] | 19.9 | 28.5 | 46.4 | 37.1 | 35.4
32 | GGGCGUGUGGCGCGGCGUGCUCCGCUCCGUCGAGGACCGGUACGGCCGCCACUCGACAUGAGGAUCACCCAUGUGCGAGCUCGCG [#1 Exclusion - Tryptophan A Attempt #11 (HarryS)] | 17.6 | 33.8 | 35.6 | 44.6 | 154
33 | GGGUACAUCGCGGCCGCCACUUAUGUAAAUACAUGAGGAUCACCCAUGUCGAUGGAGACAUCGGUAAGGACCGGGUGAUGUACCG | 168 | 155 | 174 | 183 | –
34 | GGGUCGGGCGCGGCCGCCACUGCGGUGGUGUGACAUGAGGAUCACCCAUGUUGUCAUGCGGCCCUUAGGACCGGGCGCCCGGCCC [#1 Exclusion - Tryptophan B Attempt #11 (HarryS)] | 19.3 | 42.5 | 67.4 | 70.1 | 38.4
35 | GGGUGCGGCACGGCCGCCACUGCGGUGGUGUGACAUGAGGAUCACCCAUGUUGUCAUGCGGCCCUUAGGACCGGGUGGCGUGCCU [#1 Exclusion - Tryptophan B Attempt #15 (HarryS)] | 5.27 | 24.1 | 31.2 | 89.5 | 38
36 | GGGUGCGGGCGAAGGAGCGUGAAGACAUGAGGAUCACCCAUGUAGAGGCCCGAACAGGGUUCGCAGGUAGGUCGCGCGCGUGCCC [#1 Same State - Arginine B Attempt #5 (HarryS)] | 11.8 | 15.6 | 20.4 | 18.6 | 16.3
37 | GGGUGCGGGUGAAGGAGCGUGAAGACAUGAGGAUCACCCAUGUAGAGGCCCGAACAGGGUUCGCAGGUAGGUCGCACCCGUGCCC [#1 Same State - Arginine B Attempt #3 (HarryS)] | 12 | 17.3 | 22.8 | 19.5 | 16.4
